Results as given in patent US20240109974A1 (SHANDONG SIMCERE BIOPHARMACEUTICAL, published 2024).
Substitutions are numbered along the chain they refer to.

T1: human TNFR2 on the surface of CHO-TNFR2 cells (human, UniProt P20333 23-461)
T1 construct: whole, on cells
T1 sequence (looked up): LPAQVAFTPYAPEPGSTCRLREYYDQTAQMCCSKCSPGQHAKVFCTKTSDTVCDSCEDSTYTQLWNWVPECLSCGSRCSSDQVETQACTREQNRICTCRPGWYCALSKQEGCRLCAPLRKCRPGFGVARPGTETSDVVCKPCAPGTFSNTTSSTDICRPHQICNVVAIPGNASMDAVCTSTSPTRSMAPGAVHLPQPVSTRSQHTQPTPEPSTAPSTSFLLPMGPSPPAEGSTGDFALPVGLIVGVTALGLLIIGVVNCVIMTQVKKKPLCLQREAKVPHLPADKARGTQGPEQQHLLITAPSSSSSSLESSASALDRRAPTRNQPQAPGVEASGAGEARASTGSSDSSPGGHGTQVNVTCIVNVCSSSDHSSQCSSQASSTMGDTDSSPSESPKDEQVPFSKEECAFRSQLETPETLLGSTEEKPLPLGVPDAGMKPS

T2: human TNFR2 (Novoprotein, Cat #C830) (human, UniProt P20333 23-257, limits assumed)
T2 construct: construct not described; also called human TNFR2 protein
T2 sequence (looked up): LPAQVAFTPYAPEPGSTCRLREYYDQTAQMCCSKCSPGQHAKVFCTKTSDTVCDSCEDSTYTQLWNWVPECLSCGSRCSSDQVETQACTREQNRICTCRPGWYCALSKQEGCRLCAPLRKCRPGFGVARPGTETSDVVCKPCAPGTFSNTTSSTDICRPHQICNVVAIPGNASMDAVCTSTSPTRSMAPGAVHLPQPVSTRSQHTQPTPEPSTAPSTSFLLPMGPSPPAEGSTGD

T3: Human TNFR2-His (Sino 10417-H08H) (human, UniProt P20333 23-257)
T3 construct: Bought protein; also called recombinant human TNFR2 protein; not shown: His tag
T3 sequence (looked up): T2 sequence (looked up)

B1: 224-Hu1 (antibody, V domains shown)
VH: QVQLVQSGAEVKKPGASVKVSCKASGFNNKDIYMHWVRQAPGQGLEWIGRIDPATGNTKHDPKFQDRVTMTSDTSTNTVYMELSSLRSEDTAVYYCARSPYGDFGAMDYWGQGTLVTVSS
VL: DIQMTQSPSSLSASVGDRVTITCTASSSVSSNYLHWYQQKPGKAPKLWIYSTSNLPSGVPSRFSGSGSGTDFTLTISSLQPEDFATYYCHQYHRSPWTFGQGTKVEIK
notes: Humanized form of #224; also called VH8 + VL6
B2: 224-Hu6 (antibody, V domains shown)
VH: B1 VH
VL: B1 VL with K43S, A44S
notes: Humanized form of #224; also called VH8 + VL7
B3: 224-Hu7 (antibody, V domains shown)
VH: QVQLVQSGSELKKPGASVKVSCKASGFNNKDIYMHWVRQAPGQGLEWMGRIDPATGNTKHDPKFQDKAVLSSDTSVSTAYLQISSLKAEDTAVYYCARSPYGDFGAMDYWGQGTLVTVSS
VL: B1 VL with W48L
notes: Humanized form of #224; also called VH9 + VL10
B4: 224-Hu2 (antibody, V domains shown)
VH: B3 VH
VL: B1 VL with K43S, A44S
notes: Humanized form of #224; also called VH9 + VL7
B5: 224-Hu3 (antibody, V domains shown)
VH: B3 VH
VL: B1 VL with W48L, P81A, F84A
notes: Humanized form of #224; also called VH9 + VL8
B6: 224-Hu4 (antibody, V domains shown)
VH: B3 VH
VL: B1 VL
notes: Humanized form of #224; also called VH9 + VL6
B7: 224-Hu5 (antibody, V domains shown)
VH: B3 VH
VL: B1 VL with W48L, F72Y, T73S
notes: Humanized form of #224; also called VH9 + VL9

biological target: T1, human TNFR2 on the surface of CHO-TNFR2 …; test: competition flow cytometry on CHO-TNFR2 cells, competitor TNFα-biotin; AUC against 224-WT
Method: CHO stable cells highly expressing human TNFR2 were used for the experiment (the same as CHO-TNFR2 in Example 4). The CHO-TNFR2 cells were digested, washed twice with DPBS, then stained with Live/Dead (L/D) (20 minutes at room temperature), and plated at a density of 1×10⁵ cells/50 μl/well. A test anti-TNFR2 antibody was diluted to 6 μg/ml with a staining buffer as the starting concentration: the antibody was subjected to 3.33-fold gradient dilution, with a total of 7 concentration points. The diluted antibody was added to the plated cells at 50 μl/well, and the mixture was mixed well by gentle pipetting, and incubated at 4° C. for 30 minutes. Then the diluted 100 ng/ml of human TNFα-biotin was added at 100 μl/well, and the mixture was mixed well by gentle pipetting, and then incubated at 4° C. for 30 minutes. The mixture was washed twice with a staining buffer, and then 0.12 μg/ml PE-streptavidin (BioLegend, Cat #405204) was added at 100 μl/well; the resulting mixture was incubated at 4° C. for 30 minutes. The mixture was washed twice with a staining buffer, and then 150 μl of staining buffer was added to resuspend the cells; signals were detected by a flow cytometer (Thermo Attune NxT). The inhibitory curve of an antibody was drawn with antibody concentration as the abscissa and corresponding MFI value as the ordinate, and fitted with four parameters (GraphPad Prism9) to calculate the IC50 value. The smaller the IC50 value, the stronger the ability of an antibody to inhibit the binding of human TNFα to human TNFR2. The blocking effect of a humanized antibody was normalized to its corresponding human-murine chimeric WT antibody. The higher the percentage value, the better the inhibitory effect of the humanized antibody.

Which “% Relative activity (WT antibody/test antibody)” value does the source give for B1 here?
Its value is 99.2%.

Which “% Relative activity (WT antibody/test antibody)” value does the source give for B2 here?
Its value is 99.4%.

How did the “% Relative activity (WT antibody/test antibody)” value turn out when B3 was run?
The value was 91.1%.

How did the “% Relative activity (WT antibody/test antibody)” value turn out when B4 was run?
Its value is 105%.

Which “% Relative activity (WT antibody/test antibody)” value does the source give for B5 here?
The value was 95.6%.

With B6 as the binder, how does the “% Relative activity (WT antibody/test antibody)” value read?
The value was 97.3%.

With B7 as the binder, how does the “% Relative activity (WT antibody/test antibody)” value read?
Its value is 94.4%.

biological target: T2, human TNFR2 (Novoprotein, Cat #C830); test: competition ELISA, competitor human TNFα-Biotin; AUC against 224-WT
Method: (§1) 1 μg/ml human TNFR2 (Novoprotein, Cat #C830) was pre-coated with 100 μl/well […] in an ELISA plate. All the test TNFR2 antibodies were subjected to 2.5-fold gradient dilution from the highest concentration of 30 μg/ml; the diluted antibodies were mixed with 15 ng/ml human TNFα-Biotin (Acro Biosystem, Cat #TNA-H82E3) in equal volume, respectively; the resulting mixture was added to the ELISA plate at 100 μl/well, and incubated with shaking at room temperature for 2.0 hours. The plate was washed, and then a Streptavidin-HRP working solution (diluted at 1:10000) was added at 100 μl/well, and the mixture was incubated with shaking at room temperature for 40 minutes. The plate was washed again, and then the substrate TMB of HRP was added to develop colour. A stop solution was added to stop the reaction, and then a microplate reader (MD 13) was used to read the absorbance value. The inhibitory curve of an antibody was drawn with antibody concentration as the abscissa and corresponding OD value as the ordinate, and fitted with four parameters (GraphPad Prism9) to calculate the IC50 value. The smaller the IC50 value, the stronger the ability of an antibody to inhibit the binding of human TNFα to human TNFR2. The blocking effect of a humanized antibody was normalized to its corresponding human-murine chimeric antibody WT. The higher the percentage value, the better the inhibitory effect of the humanized antibody.

B1 was tested. Which “% Relative activity (WT antibody/test antibody)” value did it give?
The value was 98.8%.

For B2, which “% Relative activity (WT antibody/test antibody)” value is on record?
Its value is 100%.

B3 was tested. Which “% Relative activity (WT antibody/test antibody)” value did it give?
The value was 100%.

How did the “% Relative activity (WT antibody/test antibody)” value turn out when B4 was run?
The value was 102%.

How did the “% Relative activity (WT antibody/test antibody)” value turn out when B5 was run?
The value was 98.2%.

B6 was tested. Which “% Relative activity (WT antibody/test antibody)” value did it give?
The value was 100%.

How did the “% Relative activity (WT antibody/test antibody)” value turn out when B7 was run?
Its value is 97.2%.

biological target: T3, Human TNFR2-His (Sino 10417-H08H); test: ELISA, human TNFR2-His coated; EC50 against 224-WT
Method: The test humanized antibody against TNFR2 (as described in Example 1, the antibody was comprised of variable regions linked to IgG-Fc; the WT chimeric antibody also adopted the IgG-Fc structure) was subjected to 3.33-fold gradient dilution, loaded with 100 μl/well, and incubated with shaking at room temperature for 1.5 hours. The plate was washed, and then a working solution of murine anti-human IgG Fc-HRP (diluted at 1:10000) was added, loaded with 100 μl/well, and incubated with shaking at room temperature for 1.0 hour. The plate was washed again, and then the substrate TMB of HRP was added to develop colour. A stop solution was added to stop the reaction, and then a microplate reader (MD 13) was used to read the absorbance value. The binding curve of an antibody was drawn with antibody concentration as the abscissa and corresponding OD value as the ordinate, and fitted with four parameters (GraphPad Prism9) to calculate the EC50 value. The smaller the EC50 value, the stronger the binding ability of an antibody to human/cynomolgus monkey TNFR2. The binding effect of a humanized antibody was normalized to its corresponding human-murine chimeric antibody WT (see SEQ ID NOs: 38-43 for the sequence). The higher the percentage value, the better the binding effect of the humanized antibody. The results of binding of an anti-TNFR2 antibody to a human TNFR2 protein are shown in FIG. 1 and Table 4, and the results of binding of an anti-TNFR2 antibody to cynomolgus monkey TNFR2 are shown in FIG. 2 and Table 4.

With B1 as the binder, how does the “% Relative activity (WT antibody/test antibody)” value read?
Its value is 143%.

B2 was tested. Which “% Relative activity (WT antibody/test antibody)” value did it give?
The value was 104%.

How did the “% Relative activity (WT antibody/test antibody)” value turn out when B3 was run?
Its value is 110%.

Which “% Relative activity (WT antibody/test antibody)” value does the source give for B4 here?
Its value is 138%.

With B5 as the binder, how does the “% Relative activity (WT antibody/test antibody)” value read?
Its value is 122%.

B6 was tested. Which “% Relative activity (WT antibody/test antibody)” value did it give?
The value was 108%.

B7 was tested. Which “% Relative activity (WT antibody/test antibody)” value did it give?
Its value is 99.4%.

biological target: T2, human TNFR2 (Novoprotein, Cat #C830); test: competition ELISA, competitor human TNFα-Biotin; IC50 against 224-WT
Method: as §1

B1 was tested. Which “% Relative activity (WT antibody/test antibody)” value did it give?
The value was 106%.

How did the “% Relative activity (WT antibody/test antibody)” value turn out when B2 was run?
Its value is 115%.

B3 was tested. Which “% Relative activity (WT antibody/test antibody)” value did it give?
Its value is 106%.

Which “% Relative activity (WT antibody/test antibody)” value does the source give for B4 here?
Its value is 121%.

B5 was tested. Which “% Relative activity (WT antibody/test antibody)” value did it give?
Its value is 120%.

Which “% Relative activity (WT antibody/test antibody)” value does the source give for B6 here?
The value was 105%.

How did the “% Relative activity (WT antibody/test antibody)” value turn out when B7 was run?
Its value is 93.1%.
